Measured values: paper PMC10786891, “Massively parallel profiling of RNA-targeting CRISPR-Cas13d”
Changes are numbered by the printed parent chain.

B1: target 2 MT 5'PFS GCC 3'PFS UAC (mixed)
RNA 1: CACCCGUGCAAAAUUGCAGGGGUCUAAAACCUUCUCCAAAUUGUUUCAUCCU
RNA 2: GGGAAUGGAUCCACAUCUACGAAUUCGCCAGGAUGAAACAAUUUGGAGAAGUACAGAUCGGAAGAGCACACGU
B2: target 2 MT 5'PFS AAA 3'PFS CAC (mixed)
RNA 1: B1 RNA 1
RNA 2: B1 RNA 2 with G27A, C28A, C29A, U52C
B3: target 2 MT 5'PFS UCA 3'PFS AGC (mixed)
RNA 1: B1 RNA 1
RNA 2: B1 RNA 2 with G27U, C29A, U52A, A53G
B4: target 2 MT 5'PFS CUU 3'PFS UUC (mixed)
RNA 1: B1 RNA 1
RNA 2: B1 RNA 2 with G27C, C28U, C29U, A53U
B5: target 2 MT 5'PFS UCA 3'PFS AGA (mixed)
RNA 1: B1 RNA 1
RNA 2: B1 RNA 2 with G27U, C29A, U52A, A53G, C54A
B6: target 2 MT 5'PFS AUA 3'PFS AUA (mixed)
RNA 1: B1 RNA 1
RNA 2: B1 RNA 2 with G27A, C28U, C29A, U52A, A53U, C54A
B7: target 2 MT 5'PFS UGG 3'PFS CAG (mixed)
RNA 1: B1 RNA 1
RNA 2: B1 RNA 2 with G27U, C28G, C29G, U52C, C54G
B8: target 2 MT 5'PFS GUU 3'PFS UCU (mixed)
RNA 1: B1 RNA 1
RNA 2: B1 RNA 2 with C28U, C29U, A53C, C54U
B9: target 2 MT 5'PFS UUU 3'PFS UGU (mixed)
RNA 1: B1 RNA 1
RNA 2: B1 RNA 2 with G27U, C28U, C29U, A53G, C54U
B10: target 2 MT 5'PFS GAC 3'PFS AAG (mixed)
RNA 1: B1 RNA 1
RNA 2: B1 RNA 2 with C28A, U52A, C54G
B11: target 2 MT 5'PFS GCC 3'PFS UAG (mixed)
RNA 1: B1 RNA 1
RNA 2: B1 RNA 2 with C54G
B12: target 2 MT 5'PFS GGU 3'PFS ACU (mixed)
RNA 1: B1 RNA 1
RNA 2: B1 RNA 2 with C28G, C29U, U52A, A53C, C54U
B13: target 2 MT 5'PFS AAU 3'PFS UAC (mixed)
RNA 1: B1 RNA 1
RNA 2: B1 RNA 2 with G27A, C28A, C29U
B14: target 2 MT 5'PFS AAA 3'PFS CAG (mixed)
RNA 1: B1 RNA 1
RNA 2: B1 RNA 2 with G27A, C28A, C29A, U52C, C54G
B15: target 2 MT 5'PFS GAC 3'PFS AAU (mixed)
RNA 1: B1 RNA 1
RNA 2: B1 RNA 2 with C28A, U52A, C54U
B16: target 2 MT 5'PFS AUA 3'PFS AUU (mixed)
RNA 1: B1 RNA 1
RNA 2: B1 RNA 2 with G27A, C28U, C29A, U52A, A53U, C54U
B17: target 2 MT 5'PFS CUU 3'PFS UUA (mixed)
RNA 1: B1 RNA 1
RNA 2: B1 RNA 2 with G27C, C28U, C29U, A53U, C54A
B18: target 2 MT 5'PFS GGU 3'PFS ACA (mixed)
RNA 1: B1 RNA 1
RNA 2: B1 RNA 2 with C28G, C29U, U52A, A53C, C54A
B19: target 2 MT 5'PFS AGG 3'PFS CAG (mixed)
RNA 1: B1 RNA 1
RNA 2: B1 RNA 2 with G27A, C28G, C29G, U52C, C54G
B20: target 2 MT 5'PFS GGU 3'PFS ACG (mixed)
RNA 1: B1 RNA 1
RNA 2: B1 RNA 2 with C28G, C29U, U52A, A53C, C54G
B21: target 2 MT 5'PFS UAC 3'PFS ACU (mixed)
RNA 1: B1 RNA 1
RNA 2: B1 RNA 2 with G27U, C28A, U52A, A53C, C54U
B22: target 2 MT 5'PFS GAC 3'PFS AAC (mixed)
RNA 1: B1 RNA 1
RNA 2: B1 RNA 2 with C28A, U52A
B23: target 2 MT 5'PFS GUU 3'PFS UCA (mixed)
RNA 1: B1 RNA 1
RNA 2: B1 RNA 2 with C28U, C29U, A53C, C54A
B24: target 2 MT 5'PFS AUA 3'PFS AUG (mixed)
RNA 1: B1 RNA 1
RNA 2: B1 RNA 2 with G27A, C28U, C29A, U52A, A53U, C54G
B25: target 2 MT 5'PFS UCA 3'PFS AGG (mixed)
RNA 1: B1 RNA 1
RNA 2: B1 RNA 2 with G27U, C29A, U52A, A53G, C54G
B26: target 2 MT 5'PFS GGA 3'PFS UGC (mixed)
RNA 1: B1 RNA 1
RNA 2: B1 RNA 2 with C28G, C29A, A53G
B27: target 2 MT 5'PFS AAU 3'PFS UAU (mixed)
RNA 1: B1 RNA 1
RNA 2: B1 RNA 2 with G27A, C28A, C29U, C54U
B28: target 2 MT 5'PFS AUA 3'PFS AUC (mixed)
RNA 1: B1 RNA 1
RNA 2: B1 RNA 2 with G27A, C28U, C29A, U52A, A53U
B29: target 2 MT 5'PFS CUU 3'PFS UUG (mixed)
RNA 1: B1 RNA 1
RNA 2: B1 RNA 2 with G27C, C28U, C29U, A53U, C54G
B30: target 2 MT 5'PFS GUU 3'PFS UCC (mixed)
RNA 1: B1 RNA 1
RNA 2: B1 RNA 2 with C28U, C29U, A53C
B31: target 2 MT 5'PFS UUU 3'PFS UGC (mixed)
RNA 1: B1 RNA 1
RNA 2: B1 RNA 2 with G27U, C28U, C29U, A53G
B32: target 2 MT 5'PFS UGG 3'PFS CAA (mixed)
RNA 1: B1 RNA 1
RNA 2: B1 RNA 2 with G27U, C28G, C29G, U52C, C54A
B33: target 2 MT 5'PFS ACA 3'PFS AUU (mixed)
RNA 1: B1 RNA 1
RNA 2: B1 RNA 2 with G27A, C29A, U52A, A53U, C54U
B34: target 2 MT 5'PFS AUG 3'PFS UUC (mixed)
RNA 1: B1 RNA 1
RNA 2: B1 RNA 2 with G27A, C28U, C29G, A53U
B35: target 2 MT 5'PFS GAC 3'PFS AAA (mixed)
RNA 1: B1 RNA 1
RNA 2: B1 RNA 2 with C28A, U52A, C54A
B36: target 1 insU 3' of 20,insG 3' of 9 (mixed)
RNA 1: CACCCGUGCAAAAAUGCAGGGGUCUAAAACUGAGCGGAUAACCUCUCUAUGG
RNA 2: GGGAAUGGAUCCACAUCUACGAAUUCGUACCAUUAGAGAGGUUAGUCCGCUCACCGAGAUCGGAAGAGCACACGU
B37: target 1 insA 3' of 7,insG 3' of 2 (mixed)
RNA 1: B36 RNA 1
RNA 2: GGGAAUGGAUCCACAUCUACGAAUUCGUACCAUAGAGAGGUUAUCACGCUCGACCGAGAUCGGAAGAGCACACGU
B38: target 1 insU 3' of 12,insG 3' of 1 (mixed)
RNA 1: B36 RNA 1
RNA 2: B37 RNA 2 with A43U, U44A, C45U, A46C, G52A, A53G

Target: T1, EsCas13d, nuclease-dead (Eubacterium siraeum, UniProt B0MS50, R295A;H300A;R849A;H854A)
T1 sequence: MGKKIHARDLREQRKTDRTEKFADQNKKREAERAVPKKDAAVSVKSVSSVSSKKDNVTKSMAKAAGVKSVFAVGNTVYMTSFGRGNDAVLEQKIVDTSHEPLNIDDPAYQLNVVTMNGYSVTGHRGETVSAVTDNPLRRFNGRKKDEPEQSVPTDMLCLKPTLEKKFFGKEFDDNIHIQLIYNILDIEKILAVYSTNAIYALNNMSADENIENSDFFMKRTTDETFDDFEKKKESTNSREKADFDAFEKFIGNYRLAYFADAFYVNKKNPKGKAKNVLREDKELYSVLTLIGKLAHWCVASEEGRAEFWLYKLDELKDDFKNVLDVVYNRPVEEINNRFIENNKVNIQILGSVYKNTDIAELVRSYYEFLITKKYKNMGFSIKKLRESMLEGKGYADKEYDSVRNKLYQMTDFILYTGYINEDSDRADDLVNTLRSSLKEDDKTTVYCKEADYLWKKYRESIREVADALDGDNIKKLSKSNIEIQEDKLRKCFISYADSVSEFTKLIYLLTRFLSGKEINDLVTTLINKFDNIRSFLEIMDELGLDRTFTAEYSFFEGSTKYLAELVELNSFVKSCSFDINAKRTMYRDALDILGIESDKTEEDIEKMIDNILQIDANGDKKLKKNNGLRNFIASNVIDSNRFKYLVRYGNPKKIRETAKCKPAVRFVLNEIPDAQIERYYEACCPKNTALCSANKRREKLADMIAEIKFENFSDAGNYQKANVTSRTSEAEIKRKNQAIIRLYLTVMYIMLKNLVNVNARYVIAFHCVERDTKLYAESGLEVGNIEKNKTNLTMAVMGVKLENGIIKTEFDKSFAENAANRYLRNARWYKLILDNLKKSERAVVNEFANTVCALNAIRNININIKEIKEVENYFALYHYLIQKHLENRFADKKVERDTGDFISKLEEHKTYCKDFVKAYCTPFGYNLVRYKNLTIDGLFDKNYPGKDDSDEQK
Experiment: crRNA (strand 1, pre-loaded); Mg2+; 40 mM Tris-HCl pH 7.5, 150 mM NaCl, 6 mM MgCl2, 1 mM DTT, 0.1% Tween-20, 0.2 mg/ml BSA; 25 C; 10 min per concentration, then washed
Settings: tags: His6-TwinStrep-SUMO cleaved; N-terminal SNAP kept (SNAP-Surface 488); label: 3' end held by stalled T7 RNA polymerase

Binder | Kd [nM]
B1 | 20 ± 7
B2 | 5.4 ± 1.2
B3 | 2.68 ± 0.29
B4 | 9.2 ± 2
B5 | 7.6 ± 1.8
B6 | 5.2 ± 0.6
B7 | 6.2 ± 0.8
B8 | 23.9 ± 3.1
B9 | 16 ± 1.8
B10 | 8 ± 0.8
B11 | 12 ± 3.4
B12 | 17.8 ± 1.7
B13 | 9.2 ± 2.1
B14 | 3.8 ± 0.6
B15 | 10.7 ± 2.4
B16 | 5.8 ± 0.8
B17 | 5 ± 0.5
B18 | 13.4 ± 1.7
B19 | 4.8 ± 0.5

Binder | Kd [nM]
B20 | 18.2 ± 1.8
B21 | 9 ± 2.5
B22 | 11.4 ± 2.3
B23 | 29 ± 8
B24 | 5.6 ± 0.5
B25 | 3.3 ± 0.7
B26 | 10.5 ± 0.9
B27 | 4.9 ± 0.9
B28 | 6.1 ± 0.7
B29 | 6 ± 0.7
B30 | 36 ± 5
B31 | 5.2 ± 0.4
B32 | 4.7 ± 0.8
B33 | 5.5 ± 0.8
B34 | 21 ± 4
B35 | 9.5 ± 1.9
B36 | 29 ± 4
B37 | 7.4 ± 0.7
B38 | 7.3 ± 0.7
